Here are results for twelve molecules from patent publication US20210363269A1 (ALX ONCOLOGY, published 2021).

The labels stand for the following.
T1: cynomolgus SIRP-α D1 domain (cyno1) (cynomolgus monkey, UniProt Q5TFQ8 30-148 (human entry), limits assumed)
T1 chain: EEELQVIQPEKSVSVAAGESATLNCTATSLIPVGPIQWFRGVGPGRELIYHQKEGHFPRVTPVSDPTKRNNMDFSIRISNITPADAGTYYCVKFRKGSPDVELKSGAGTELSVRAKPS

T2: NOD mouse SIRP-α (mouse (NOD strain))
T2 chain: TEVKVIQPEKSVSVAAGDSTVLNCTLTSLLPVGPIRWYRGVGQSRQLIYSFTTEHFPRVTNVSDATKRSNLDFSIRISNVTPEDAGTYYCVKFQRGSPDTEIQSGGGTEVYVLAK

T3: BALBc mouse SIRP-α (mouse (BALB/c strain))
T3 chain: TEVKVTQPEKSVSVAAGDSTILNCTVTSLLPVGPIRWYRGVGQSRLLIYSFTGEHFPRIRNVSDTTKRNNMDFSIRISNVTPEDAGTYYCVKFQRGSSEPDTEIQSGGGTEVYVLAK

T4: BL6 mouse SIRP-α (mouse (C57BL/6 strain), UniProt P97797 32-148)
T4 construct: also called C57BL/6
T4 sequence: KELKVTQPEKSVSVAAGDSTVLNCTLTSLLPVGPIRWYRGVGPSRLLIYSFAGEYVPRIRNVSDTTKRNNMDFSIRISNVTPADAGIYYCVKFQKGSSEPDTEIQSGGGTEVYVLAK

T5: C57BL/6 mouse SIRP-α D1 domain (mouse (C57BL/6 strain), UniProt P97797 32-148)
T5 sequence: T4 sequence

T6: cynomolgus SIRP-α (cynomolgus monkey, UniProt Q5TFQ8 30-148 (human entry), limits assumed)
T6 construct: also called cyno1
T6 chain: T1 chain

B1: S218 (scFv, V domains shown)
VH: DVQLVESGGGVVRPGESLTLSCTASGFTFTSSTMNWVRQAPGEGLDWVSSISTSGVITYYADSVKGRATISRDNSKNTLYLRLFSLRADDTAIYYCATDTFDHWGPGTLVTVSS
VL: ALTQPASVSANPGETVKITCFGSSGNYGWFQQKSPGSAPVTVIHYNNKRPSDIPSRFSGSKSGSTGTLTITGVRAEDEAVYFCGAWETGSATFGAGTTLTVL
notes: scFv-Fc format (VL-linker-VH on human IgG1 Fc)
B2: antibody 136 variant, light chain Mut_S22T / heavy chain Mut (antibody, V domains shown)
VH: EVQLVESGGGVVQPGRSLRLSCAASGFTFSSYDVNWVRQAPGKGLEWVSLISGSGEIIYYADSVKGRFTISRDNSKNTLYLQMNSLRAEDTAVYYCAKENNRYRFFDDWGQGTLVTVSS
VL: EIVLTQSPGTLSLSPGERATLTCRASQSVYTYLAWYQQKPGQAPRLLIYGASSRATGIPDRFSGSGSGTEFTLTISSLQSEDFAVYYCQQYYDRPPLTFGGGTKVEIK
B3: Hum3/AB27_HC_wt (antibody, V domains shown)
VH: DVQLVESGGGVVRPGESLRLSCAVSGFRFSSYAMSWVRQAPGKGLEWVSGISSGGDTYYVDSVKGRFTISRDNSKNTLYLQVNSLTAEDTAIYYCARETWNHLFDYWGLGTLVTVSS
VL: SYELTQPPSVSVSPGQTARITCSGGDYYSTYYAWYQQKPGQAPVTVIHSDDKRPSDIPERFSGSSSGTTVTLTISGVQAEDEADYYCGGYDGRTYINTFGGGTKLTVL
B4: antibody 27 (antibody, V domains shown)
VH: B3 VH
VL: ALTQPASVSADLGETVKITCSGGDSSSHYYGWYQQKSPGSAPVTVIYSDDERPSDIPSRFSGSASGSTATLTITGVRVEDEAIYYCGAYDGSTYANTFGAGTTLTVL
notes: also called AB27; S27
B5: Hum1/AB21_HC_wt (antibody, V domains shown)
VH: DVQLVESGGGVVRPGESLRLSCAASGFTFSSNAMSWVRQAPGKGLEWLAGISAGGSDTYYPASVKGRFTISRDNSKNTLYLQMNTLTAEDTAVYYCARETWNHLFDYWGLGTLVTVSS
VL: SYELTQPPSVSVSPGQTARITCSGGSYSSYYYAWYQQKPGQAPVTLIYSDDKRPSNIPERFSGSSSGTTVTLTISGVQAEDEADYYCGGYDQSSYTNPFGGGTKLTVL
B6: Hum3/AB66_HC_wt (antibody, V domains shown)
VH: B5 VH with N32Y, P61I, A62D, S75P, T78S, N84S, T85S
VL: B3 VL
B7: Hum1/AB25_HC_wt (antibody, V domains shown)
VH: DVQLVESGGGVVRPGESLRLSCEASGFTFSSNAMSWVRQAPGKGLEWVAGISSGSDTYYGDSVKGRLTISRDNSKNILYLQMNSLTAEDTAVYYCARETWNHLFDYWGLGTLVTVSS
VL: B5 VL
B8: Hum1/AB66_HC_wt (antibody, V domains shown)
VH: B5 VH with N32Y, P61I, A62D, S75P, T78S, N84S, T85S
VL: B5 VL
B9: Hum1/AB27_HC_wt (antibody, V domains shown)
VH: B3 VH
VL: B5 VL
B10: antibody 66 (antibody, V domains shown)
VH: B5 VH with N32Y, P61I, A62D, S75P, T78S, N84S, T85S
VL: ALTQPASVSANPGETVKITCSGGDYYSTYYAWYQQKSPGSAPVTVIHSDDKRPSDIPSRFSGSASGSAATLIITGVRVEDEAVYYCGGYDGRTYINTFGAGTTLTVL
notes: also called AB66; S66
B11: Hum3/AB21_HC_wt (antibody, V domains shown)
VH: B5 VH
VL: B3 VL
B12: Hum3/AB25_HC_wt (antibody, V domains shown)
VH: B7 VH
VL: B3 VL

Changes are numbered by the printed parent chain. Some results are limits rather than exact numbers.

T10 sequence (chain, as listed by the source limits assumed): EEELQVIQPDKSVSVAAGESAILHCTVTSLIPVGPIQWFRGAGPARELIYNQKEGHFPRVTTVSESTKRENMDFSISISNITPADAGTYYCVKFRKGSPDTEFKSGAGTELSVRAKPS
T8 sequence (P78324 31-149 limits assumed): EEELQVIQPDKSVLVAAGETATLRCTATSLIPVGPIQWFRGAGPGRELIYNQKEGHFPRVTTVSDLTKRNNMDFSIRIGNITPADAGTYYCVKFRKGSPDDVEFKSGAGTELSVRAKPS

The target of one assay is T7, human SIRPγ isoform 1 (human, UniProt Q9P1W8 29-147).
T7 construct: also called SIRPg; sirpg
Put plainly: SPR, Langmuir fit. The method in brief:
(§1)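 scFv-Fc antibody clones were captured from pre-filtered culture media onto anti-human IgG Fc, amine-coupled at about 4000 RU on a GLC chip in a ProteOn XPR36 instrument. SIRP analytes were passed over in PBS pH 7.4 with 0.01% Tween-20 at 25° C, and responses were double-referenced against interspot and buffer-blank signals. Curves were fitted to a 1:1 Langmuir model. Dissociation rate constants (koff) were taken from those fits.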
T7 sequence (Q9P1W8 29-147 limits assumed): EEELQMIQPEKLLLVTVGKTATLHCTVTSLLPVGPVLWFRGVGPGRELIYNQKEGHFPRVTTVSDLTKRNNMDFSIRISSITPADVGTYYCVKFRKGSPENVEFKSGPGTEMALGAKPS
As a reminder, the koff is the rate constant with which the complex falls apart. Lower therefore signals a long-lived complex. B1 returned a dissociation rate constant (koff) of 2.12e-05 s⁻¹.

The next assay concerns the target T8, human SIRP-α v1 D1 domain (human, UniProt P78324 31-149).
T8 construct: also called human v1
As to the kind of experiment: SPR, Langmuir fit. The method in brief: as §1
For orientation: Surface plasmon resonance follows binding to a sensor surface in real time, without labels.
Turning to B1, the koff is 7.06e-05 s⁻¹.

Another assay deals with T1, cynomolgus SIRP-α D1 domain (cyno1). As to the kind of experiment: SPR, Langmuir fit. The method in brief: as §1
Turning to B1, the koff was found to be 2.49e-05 s⁻¹.

For a further assay, the target named is T9, human SIRP-α v2 D1 domain (human).
T9 construct: also called human v2
T9 sequence (chain, as listed by the source limits assumed): as the sequence (chain, as listed by the source limits assumed) above
As to the kind of experiment: SPR, Langmuir fit. The method in brief: as §1
In turn, B1 displayed a koff of 5.47e-05 s⁻¹.

A further assay concerns the target T2, NOD mouse SIRP-α. As to the kind of experiment: SPR, antibody on GLC chip. The method in brief: (§2)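 SIRP analytes were run over antibody surfaces in PBS pH 7.4 with 0.01% Tween-20 at 25° C, using one-shot injections at 100, 33, 11, 3.7, 1.2 and 0 nM. The antibodies, purified by Protein A, had been amine-coupled (~1000 RU) to a GLC chip of a ProteOn XPR36 biosensor from an 80 nM solution in 10 mM sodium acetate pH 4.5. Association lasted 90 s at a flow of 100 μL/min, and dissociation lasted 1200 s. KD equals kd/ka, obtained by fitting double-referenced data globally to a Langmuir model.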
Usually Kd stands for the free concentration of one partner at which half of the binding sites on the other are occupied at equilibrium, for simple one-to-one binding. Lower therefore signals a tighter complex. B2 showed a dissociation constant (Kd) of 2.44 nM.

The target of a further assay is T3, BALBc mouse SIRP-α. Put plainly: SPR, antibody on GLC chip. The method in brief:
as §2
The molecule B2 yielded a Kd of 1.64 nM.

Another assay has as its target T10, human SIRP-α v2 (human).
T10 construct: also called Human v2; Human V2
As to the kind of experiment: SPR, antibody on GLC chip. The method in brief:
as §2
For B2, the equilibrium dissociation constant (Kd) is 8.28 nM.

Another assay addresses T4, BL6 mouse SIRP-α. Put plainly: SPR, antibody on GLC chip. The method in brief:
as §2
B2 yielded an equilibrium dissociation constant (Kd) of 13.3 nM.

Another assay deals with T11, human SIRP-α v1 (human, UniProt P78324 31-149).
T11 construct: also called Human v1; Human V1
T11 sequence (P78324 31-149 limits assumed): as the sequence (P78324 31-149 limits assumed) above
Put plainly: SPR, antibody on GLC chip. The method in brief:
as §2
Turning to B2, the equilibrium dissociation constant (Kd) is 4.99 nM.

A further assay concerns the target T12, human SIRPγ isoform 1 (human, UniProt Q9P1W8 29-147).
T12 construct: also called Gamma; Human SIRPg
As to the kind of experiment: SPR, antibody on GLC chip. The method in brief: as §2
T12 sequence (Q9P1W8 29-147 limits assumed): as the sequence (Q9P1W8 29-147 limits assumed) above
For B2, the Kd is 61.7 nM.

The target of another assay is T5, C57BL/6 mouse SIRP-α D1 domain. Put plainly: SPR. The method in brief: as §1
As to B1, the binding result is on record as “no binding (tested: Koff > 5 × 10^3 (legend))”.

The next assay concerns the target T3, BALBc mouse SIRP-α. Put plainly: SPR. The method in brief:
(§3)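 KD values were derived as kd/ka from apparent rate constants obtained by globally fitting double-referenced data to a simple Langmuir model. The data came from a ProteOn XPR36 biosensor run at 25° C in PBS pH 7.4 with 0.01% Tween-20. There, purified antibodies sat on a GLC chip by amine coupling or on an NLC chip by biotinylated Protein A capture, and SIRP analytes were injected in one-shot kinetic mode at nominal concentrations set from A280 absorbance.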
In the case of B3, the koff was 0.000202 s⁻¹.

The molecule B4 came in with a koff of 0.005 s⁻¹.

In the case of B5, the off-rate (koff) is 0.00291 s⁻¹.

B6 had a koff of 0.00205 s⁻¹.

As for B7, the koff worked out at 0.00374 s⁻¹.

B8 returned a koff of 0.00246 s⁻¹.

Molecule B9 had a koff of 0.0037 s⁻¹.

For the molecule B10, the koff came out at 0.00346 s⁻¹.

B11 yielded a koff of 0.00231 s⁻¹.

On to B12, for which the koff turned out to be 0.000227 s⁻¹.

The next assay deals with T10, human SIRP-α v2. Put plainly: SPR. The method in brief:
as §3
B3 yielded a koff of 0.000396 s⁻¹.

In the case of B4, the koff came out at 0.000579 s⁻¹.

Consider B5, for which the dissociation rate constant (koff) was 0.000303 s⁻¹.

B6 displayed a koff of 0.000287 s⁻¹.

B7 yielded an off-rate constant (koff) of 0.000267 s⁻¹.

The molecule B8 returned a koff of 0.000239 s⁻¹.

B9 yielded a koff of 0.000292 s⁻¹.

The molecule B10 registered a koff of 0.00281 s⁻¹.

Turning to B11, the koff is 0.000438 s⁻¹.

B12 displayed a koff of 0.000353 s⁻¹.

The target in another assay is T11, human SIRP-α v1. As to the kind of experiment: SPR. The method in brief:
as §3
B3 had a koff of 0.000216 s⁻¹.

In turn, B4 yielded a koff of 0.000315 s⁻¹.

Consider B5, for which the koff turned out to be 0.000193 s⁻¹.

In turn, B6 returned a koff of 0.000124 s⁻¹.

B7 returned a koff of 0.000133 s⁻¹.

Molecule B8 showed a koff of 0.000124 s⁻¹.

Consider B9, for which the koff is 0.000192 s⁻¹.

As to B10, the koff turned out to be 0.000949 s⁻¹.

As to B11, the koff was 0.000137 s⁻¹.

In the case of B12, the koff worked out at 5.94e-05 s⁻¹.

In the next assay the target is T12, human SIRPγ isoform 1. As to the kind of experiment: SPR. The method in brief: as §3
Turning to B3, the koff turned out to be 0.000207 s⁻¹.

B4 returned a koff of 0.000407 s⁻¹.

For the molecule B5, the off-rate (koff) was 0.000188 s⁻¹.

B6 came in with a koff of 0.000135 s⁻¹.

Consider B7, for which the dissociation rate constant (koff) worked out at 0.000203 s⁻¹.

With B8, the koff came out at 0.000136 s⁻¹.

B9: the koff was determined as 0.000178 s⁻¹.

The molecule B10 displayed a koff of 0.000997 s⁻¹.

As to B11, the koff was found to be 0.00021 s⁻¹.

Consider B12, for which the koff was 0.000169 s⁻¹.

A further assay deals with T6, cynomolgus SIRP-α. Put plainly: SPR. The method in brief:
as §3
For the molecule B3, the koff is 0.000464 s⁻¹.

As for B4, the koff was 0.000683 s⁻¹.

In turn, B5 yielded a koff of 0.000395 s⁻¹.

Molecule B6 came in with a koff of 0.000306 s⁻¹.

Consider B7, for which the dissociation rate constant (koff) was found to be 0.00033 s⁻¹.

For the molecule B8, the koff turned out to be 0.000303 s⁻¹.

In turn, B9 had a koff of 0.000379 s⁻¹.

In the case of B10, the off-rate (koff) amounted to 0.00269 s⁻¹.

With B11, the koff was 0.000432 s⁻¹.

As to B12, the koff turned out to be 0.000375 s⁻¹.

The target of another assay is T11, human SIRP-α v1. As to the kind of experiment: SPR. The source holds these as a separate data set. The method in brief:
as §3
B4: the equilibrium dissociation constant (Kd) amounted to 0.0215 nM.

B10 gave a Kd below 0.001 nM.
